Results published in paper PMC4188031.

Key:
Test in all cases: SPR (ProteOn XPR36, GLC chip), co-injection mode with pH shift
Conditions in all cases: pH 7.4; 25°C (stated for the immobilisation step; not restated for the binding runs); 150 mM NaCl (plus 20 mM Na-phosphate); PBS-TE: 20 mM Na-phosphate; association at pH 6.0, dissociation at pH 7.4
[1] = molecular target: B21M anti-RSV IgG1 N434A N434A (EU numbering) (UniProt P01857)
[2] = molecular target: B21M anti-RSV IgG1 N434Y N434Y (EU numbering) (UniProt P01857)
[3] = molecular target: B21M anti-RSV IgG1, wild-type Fc (mAb WT) (UniProt P01857)

For neonatal Fc receptor (rat FcRn, rFcRn), the off-rate (koff) after pH shift 6.0 to 7.4 [1] was 0.09 1/s, the off-rate (koff) after pH shift 6.0 to 7.4 [2] was 0.02 1/s and the off-rate (koff) after pH shift 6.0 to 7.4 [3] was 0.07 1/s.
